Laboratory results: the supplement of paper PMC9112550, “Optimization of the antimicrobial peptide Bac7 by deep mutational scanning” (BMC Biology, 2022)

The sequences below were run on Escherichia coli TOP10 (assay: shrunken log2 fold change of peptide-encoding DNA abundance (4.5 h post-induction vs induction); higher = less antimicrobial activity (less host growth inhibition)). Conditions: time post-induction: 4.5 h; library: site-saturation at positions 5, 18, 19, 20.
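Note: peptides expressed intracellularly from a pBAD plasmid library in pooled LB shake-flask culture, induced with 0.3% L-arabinose, DNA abundance read by NGS, three biological replicates, DESeq2 with apeglm shrinkage.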

Sequence	shrunken log2 fold change
RRIRCRPPRLPRPRPRPKARPRP	0.315
RRIRCRPPRLPRPRPRPKDQPRP	-0.0507
RRIRCRPPRLPRPRPRPKDRPRP	-0.0193
RRIRCRPPRLPRPRPRPKFRPRP	-0.375
RRIRCRPPRLPRPRPRPKGMPRP	-0.148
RRIRCRPPRLPRPRPRPKHFPRP	-0.209
RRIRCRPPRLPRPRPRPKHWPRP	0.00902
RRIRCRPPRLPRPRPRPKICPRP	-0.0571
RRIRCRPPRLPRPRPRPKIIPRP	-0.932
RRIRCRPPRLPRPRPRPKKEPRP	0.00726
RRIRCRPPRLPRPRPRPKKHPRP	-0.217
RRIRCRPPRLPRPRPRPKKNPRP	0.24
RRIRCRPPRLPRPRPRPKLAPRP	0.551
RRIRCRPPRLPRPRPRPKLEPRP	-0.125
RRIRCRPPRLPRPRPRPKLGPRP	0.0989
RRIRCRPPRLPRPRPRPKMWPRP	1.22
RRIRCRPPRLPRPRPRPKNAPRP	-0.103
RRIRCRPPRLPRPRPRPKPAPRP	0.288
RRIRCRPPRLPRPRPRPKQGPRP	0.261
RRIRCRPPRLPRPRPRPKQKPRP	0.0322
RRIRCRPPRLPRPRPRPKRDPRP	5.21
RRIRCRPPRLPRPRPRPKRQPRP	0.13
RRIRCRPPRLPRPRPRPKRRPRP	0.0984
RRIRCRPPRLPRPRPRPKSWPRP	0.323
RRIRCRPPRLPRPRPRPKVIPRP	-0.297

Sequence	shrunken log2 fold change
RRIRCRPPRLPRPRPRPKWGPRP	0.496
RRIRCRPPRLPRPRPRPLAGPRP	0.153
RRIRCRPPRLPRPRPRPLATPRP	0.146
RRIRCRPPRLPRPRPRPLCPPRP	-0.254
RRIRCRPPRLPRPRPRPLDGPRP	-0.151
RRIRCRPPRLPRPRPRPLDIPRP	-0.422
RRIRCRPPRLPRPRPRPLESPRP	0.0242
RRIRCRPPRLPRPRPRPLFNPRP	-0.665
RRIRCRPPRLPRPRPRPLGVPRP	0.0123
RRIRCRPPRLPRPRPRPLKNPRP	-0.208
RRIRCRPPRLPRPRPRPLLHPRP	-0.319
RRIRCRPPRLPRPRPRPLLKPRP	-0.185
RRIRCRPPRLPRPRPRPLLNPRP	-0.39
RRIRCRPPRLPRPRPRPLMDPRP	-0.256
RRIRCRPPRLPRPRPRPLNDPRP	0.0553
RRIRCRPPRLPRPRPRPLNHPRP	0.519
RRIRCRPPRLPRPRPRPLPWPRP	0.195
RRIRCRPPRLPRPRPRPLRWPRP	0.613
RRIRCRPPRLPRPRPRPLSMPRP	-0.207
RRIRCRPPRLPRPRPRPLSYPRP	-1.29
RRIRCRPPRLPRPRPRPLTIPRP	-0.66
RRIRCRPPRLPRPRPRPLYAPRP	-0.3
RRIRCRPPRLPRPRPRPLYQPRP	-0.543
RRIRCRPPRLPRPRPRPLYVPRP	-0.833
RRIRCRPPRLPRPRPRPMAAPRP	0.476

Sequence	shrunken log2 fold change
RRIRCRPPRLPRPRPRPMAQPRP	-0.0404
RRIRCRPPRLPRPRPRPMCMPRP	-0.232
RRIRCRPPRLPRPRPRPMEHPRP	-0.0605
RRIRCRPPRLPRPRPRPMEIPRP	-1.16
RRIRCRPPRLPRPRPRPMEQPRP	-0.00403
RRIRCRPPRLPRPRPRPMFCPRP	-0.237
RRIRCRPPRLPRPRPRPMGGPRP	0.145
RRIRCRPPRLPRPRPRPMHDPRP	0.0244
RRIRCRPPRLPRPRPRPMHYPRP	-0.24
RRIRCRPPRLPRPRPRPMICPRP	-0.0738
RRIRCRPPRLPRPRPRPMIVPRP	0.0976
RRIRCRPPRLPRPRPRPMKNPRP	-0.128
RRIRCRPPRLPRPRPRPMKWPRP	0.0655
RRIRCRPPRLPRPRPRPMMIPRP	-0.044
RRIRCRPPRLPRPRPRPMMPPRP	-0.11
RRIRCRPPRLPRPRPRPMMTPRP	0.00323
RRIRCRPPRLPRPRPRPMNDPRP	-0.44
RRIRCRPPRLPRPRPRPMNSPRP	-0.141
RRIRCRPPRLPRPRPRPMRKPRP	0.249
RRIRCRPPRLPRPRPRPMRNPRP	0.185
RRIRCRPPRLPRPRPRPMTKPRP	0.0306
RRIRCRPPRLPRPRPRPMTSPRP	-0.0603
RRIRCRPPRLPRPRPRPMWQPRP	0.183
RRIRCRPPRLPRPRPRPMYQPRP	-0.265
RRIRCRPPRLPRPRPRPNAFPRP	0.0246

Sequence	shrunken log2 fold change
RRIRCRPPRLPRPRPRPNETPRP	-0.0198
RRIRCRPPRLPRPRPRPNGVPRP	-0.216
RRIRCRPPRLPRPRPRPNHCPRP	-0.551
RRIRCRPPRLPRPRPRPNHGPRP	-0.746
RRIRCRPPRLPRPRPRPNHIPRP	-0.994
RRIRCRPPRLPRPRPRPNHMPRP	-0.255
RRIRCRPPRLPRPRPRPNHSPRP	-0.936
RRIRCRPPRLPRPRPRPNHYPRP	-0.825
RRIRCRPPRLPRPRPRPNKCPRP	-0.279
RRIRCRPPRLPRPRPRPNLLPRP	-0.572
RRIRCRPPRLPRPRPRPNLQPRP	-0.506
RRIRCRPPRLPRPRPRPNLSPRP	-0.431
RRIRCRPPRLPRPRPRPNMNPRP	-0.88
RRIRCRPPRLPRPRPRPNNPPRP	-0.681
RRIRCRPPRLPRPRPRPNQGPRP	-0.203
RRIRCRPPRLPRPRPRPNQRPRP	-0.093
RRIRCRPPRLPRPRPRPNRFPRP	2.96
RRIRCRPPRLPRPRPRPNRSPRP	-0.359
RRIRCRPPRLPRPRPRPNTMPRP	-0.682
RRIRCRPPRLPRPRPRPNTNPRP	-0.66
RRIRCRPPRLPRPRPRPNTSPRP	-0.343
RRIRCRPPRLPRPRPRPNTTPRP	-0.291
RRIRCRPPRLPRPRPRPNVAPRP	0.0221
RRIRCRPPRLPRPRPRPNVTPRP	0.632
RRIRCRPPRLPRPRPRPNWAPRP	-0.336

Sequence	shrunken log2 fold change
RRIRCRPPRLPRPRPRPNYHPRP	-0.93
RRIRCRPPRLPRPRPRPPAVPRP	0.645
RRIRCRPPRLPRPRPRPPDDPRP	0.523
RRIRCRPPRLPRPRPRPPDGPRP	-0.0323
RRIRCRPPRLPRPRPRPPDMPRP	-0.000808
RRIRCRPPRLPRPRPRPPEHPRP	0.0824
RRIRCRPPRLPRPRPRPPFLPRP	-0.0759
RRIRCRPPRLPRPRPRPPFRPRP	0.377
RRIRCRPPRLPRPRPRPPGNPRP	0.0392
RRIRCRPPRLPRPRPRPPHFPRP	0.872
RRIRCRPPRLPRPRPRPPIGPRP	-0.079
RRIRCRPPRLPRPRPRPPITPRP	-0.286
RRIRCRPPRLPRPRPRPPKNPRP	0.5
RRIRCRPPRLPRPRPRPPKTPRP	-0.00862
RRIRCRPPRLPRPRPRPPKYPRP	-0.291
RRIRCRPPRLPRPRPRPPMDPRP	0.0314
RRIRCRPPRLPRPRPRPPMPPRP	0.45
RRIRCRPPRLPRPRPRPPMQPRP	0.516
RRIRCRPPRLPRPRPRPPNCPRP	0.0348
RRIRCRPPRLPRPRPRPPNHPRP	-0.104
RRIRCRPPRLPRPRPRPPNNPRP	-0.138
RRIRCRPPRLPRPRPRPPNSPRP	0.0267
RRIRCRPPRLPRPRPRPPNYPRP	-0.376
RRIRCRPPRLPRPRPRPPPFPRP	2.05
RRIRCRPPRLPRPRPRPPPSPRP	1.61

Sequence	shrunken log2 fold change
RRIRCRPPRLPRPRPRPPRDPRP	0.84
RRIRCRPPRLPRPRPRPPRGPRP	0.67
RRIRCRPPRLPRPRPRPPRQPRP	0.589
RRIRCRPPRLPRPRPRPPSCPRP	-0.0847
RRIRCRPPRLPRPRPRPPVFPRP	0.0601
RRIRCRPPRLPRPRPRPPVYPRP	0.000934
RRIRCRPPRLPRPRPRPPWQPRP	0.389
RRIRCRPPRLPRPRPRPPWSPRP	0.175
RRIRCRPPRLPRPRPRPPYAPRP	0.141
RRIRCRPPRLPRPRPRPQCGPRP	-0.609
RRIRCRPPRLPRPRPRPQCQPRP	0.0557
RRIRCRPPRLPRPRPRPQDMPRP	0.0633
RRIRCRPPRLPRPRPRPQENPRP	-0.0731
RRIRCRPPRLPRPRPRPQFIPRP	-0.866
RRIRCRPPRLPRPRPRPQFQPRP	-0.606
RRIRCRPPRLPRPRPRPQFSPRP	-0.145
RRIRCRPPRLPRPRPRPQFVPRP	-0.419
RRIRCRPPRLPRPRPRPQGTPRP	-0.35
RRIRCRPPRLPRPRPRPQHAPRP	-0.0229
RRIRCRPPRLPRPRPRPQHGPRP	-0.211
RRIRCRPPRLPRPRPRPQHVPRP	-0.199
RRIRCRPPRLPRPRPRPQIVPRP	-0.345
RRIRCRPPRLPRPRPRPQKGPRP	-0.133
RRIRCRPPRLPRPRPRPQKHPRP	-0.0816
RRIRCRPPRLPRPRPRPQLCPRP	0.192
